We go through three compounds from publication PMC3035770 (Biochemistry, 2011).

For experiment [1], the target named is PKR (Homo sapiens) (UniProt P19525). Particulars: cited from earlier work.
The target is the same in experiment [2]. As to conditions: cited from earlier work. The source holds these as a separate data set.
Experiment [3] has the same target. Particulars: cited from earlier work. The source holds these as a separate data set.
For experiment [4], the target named is T1, PKR (double-stranded RNA-activated protein kinase) (Homo sapiens, UniProt P19525). Description: radiolabeled ATP binding, ZipTip-C4 separation.
Experiment [5] deals with T1, PKR (double-stranded RNA-activated protein kinase). As to the kind of experiment: fluorescence polarization, direct titration. The class given is binding. On the technique in general: Polarisation of emitted light reports the rotation of a fluorescent probe.
Experiment [6] concerns the target bovine serum albumin (BSA) (Bos taurus, UniProt P02769). Description: fluorescence polarization, direct titration. The class given is binding.

Like-named read-outs stand apart in the source and are kept apart here.

What is called Kd is the equilibrium constant for the complex coming apart.

bovine serum albumin (BSA), sequence (P02769 25-607): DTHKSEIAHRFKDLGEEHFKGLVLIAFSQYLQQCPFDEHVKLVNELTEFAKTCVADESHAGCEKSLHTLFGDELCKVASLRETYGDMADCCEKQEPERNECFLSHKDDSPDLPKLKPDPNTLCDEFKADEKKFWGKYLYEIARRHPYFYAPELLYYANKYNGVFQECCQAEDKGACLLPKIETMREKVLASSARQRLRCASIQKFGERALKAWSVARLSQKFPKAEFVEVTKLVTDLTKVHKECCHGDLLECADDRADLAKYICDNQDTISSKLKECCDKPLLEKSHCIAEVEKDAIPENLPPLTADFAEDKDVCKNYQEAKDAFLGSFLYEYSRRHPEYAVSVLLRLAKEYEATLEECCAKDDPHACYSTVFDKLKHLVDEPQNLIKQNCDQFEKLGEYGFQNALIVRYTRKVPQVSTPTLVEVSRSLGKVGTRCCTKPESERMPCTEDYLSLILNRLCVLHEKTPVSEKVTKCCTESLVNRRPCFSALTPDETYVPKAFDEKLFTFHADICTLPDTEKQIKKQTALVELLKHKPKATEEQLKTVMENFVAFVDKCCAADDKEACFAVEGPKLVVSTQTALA

Take PKR (from UniProt P19525): the Kd in experiment [1] is 75 µM; in experiment [2] it was 500 µM; in experiment [3] it was 20 µM.

Take `Nc1ncnc2c1ncn2[C@@H]1O[C@H](COP(=O)(O)OP(=O)(O)OP(=O)(O)O)[C@@H](O)[C@H]1O` [ATP]: in experiment [4], the “% bound” value came out at 16.61 % bound.

On to `CC1=CC(C)=[N+]2C1=Cc1ccc(CCCCCCCCCCCCCCCC(=O)O)n1[B-]2(F)F` [Bodipy-C16, 4,4-difluoro-5,7-dimethyl-4-bora-3a,4a-diaza-s-indacene-3-hexadecanoic acid], for which the dissociation constant (Kd) in experiment [5] stood at 0.0232 ± 0.00128 µM; in experiment [6], 0.0292 ± 0.00185 µM.
